The chains are these.
B1: 13A1_DH Fab (LCR13A1_VK_GLv1_08 + LCR13A1_VH_GLv1_06) (Fab, V domains shown)
VH: QVQLVQSGSVLAKPGASVKVSCKASGYTFTNYWTHWVRQAPGQGLEWIGTIYPGNSDTNYNQKFKDRAKLTAVTSTSTVYMELSSLRSEDTALYYCTREDSRSLNFNGWDYFDHWGQGTLVTVSS
VL: DIVMTQSPDSLAVSLGQRASISCRASESVDNYGISFLNWFQQKPGQPPKLLIYAASNQGSGVPSRFSGSGSGTDFTLNIHPLEAEDAATYYCQQSKEVPRTFGGGTKVEIK
notes: Human stabilized IgG1 Fab, 6xHis on CH1
B2: 13A1_AH Fab (LCR13A1_VK_GLv3_02 + LCR13A1_VH_GLv1_06) (Fab, V domains shown)
VH: QVQLVQSGSVLAKPGASVKVSCKASGYTFTNYWTHWVRQAPGQGLEWIGTIYPGNSDTNYNQKFKDRAKLTAVTSTSTVYMELSSLRSEDTALYYCTREDSRSLNFNGWDYFDHWGQGTLVTVSS
VL: DIVMTQSPDSLAVSLGERATINCKSSESVDNYGISFLNWYQQKPGKAPKLLIYAASNQGSGVPDRFSGSGSGTDFTLTISSLQAEDAAVYFCQQSKEVPRTFGGGTKLEIK
notes: as for B1
B3: 13A1_BH Fab (LCR13A1_VK_GLv1_06 + LCR13A1_VH_GLv1_06) (Fab, V domains shown)
VH: QVQLVQSGSVLAKPGASVKVSCKASGYTFTNYWTHWVRQAPGQGLEWIGTIYPGNSDTNYNQKFKDRAKLTAVTSTSTVYMELSSLRSEDTALYYCTREDSRSLNFNGWDYFDHWGQGTLVTVSS
VL: DIVMTQSPDSLAVSLGERATISCRASESVDNYGISFLNWYQQKPGQPPKLLIYAASNQGSGVPSRFSGSGSGTDFTLNIHPLEAEDAATYYCQQSKEVPRTFGGGTKVEIK
notes: as for B1
B4: 13A1_CH Fab (LCR13A1_VK_GLv1_07 + LCR13A1_VH_GLv1_06) (Fab, V domains shown)
VH: QVQLVQSGSVLAKPGASVKVSCKASGYTFTNYWTHWVRQAPGQGLEWIGTIYPGNSDTNYNQKFKDRAKLTAVTSTSTVYMELSSLRSEDTALYYCTREDSRSLNFNGWDYFDHWGQGTLVTVSS
VL: DIVMTQSPDSLAVSLGERATISCRASESVDNYGISLLNWFQQKPGQPPKLLIYAASNQGSGVPSRFSGSGSGTDFTLNIHPLEAEDAATYYCQQSKEVPRTFGGGTKVEIK
notes: as for B1
B5: 13A1_EG Fab (LCR13A1_VK_GLv1_09 + LCR13A1_VH_GLv1_05) (Fab, V domains shown)
VH: QVQLVQSGSVLAKPGASVKVSCKASGYTFTNYWTHWVRQAPGQGLEWIGTIYPGNSDTNYNQKFKDRAKLTAVTSTSTVYMELSSLRSEDTALYYCTREDSRSLYYNGWDYFDHWGQGTLVTVSS
VL: DIVMTQSPDSLAVSLGQRASISCRASESVDNYGISLLNWYQQKPGQPPKLLIYAASNQGSGVPSRFSGSGSGTDFTLNIHPLEAEDAATYYCQQSKEVPRTFGGGTKVEIK
notes: as for B1
B6: 13A1_CF Fab (LCR13A1_VK_GLv1_07 + LCR13A1_VH_GLv1_04) (Fab, V domains shown)
VH: QVQLVQSGSVLAKPGASVKVSCKASGYTFTNYWMHWVRQAPGQGLEWIGTIYPGNSDTNYNQKFKDRAKLTAVTSTSTVYMELSSLRSEDTAVYYCTREDSRSLNFNGWDYFDYWGQGTLVTVSS
VL: DIVMTQSPDSLAVSLGERATISCRASESVDNYGISLLNWFQQKPGQPPKLLIYAASNQGSGVPSRFSGSGSGTDFTLNIHPLEAEDAATYYCQQSKEVPRTFGGGTKVEIK
notes: as for B1
B7: 13A1_BG Fab (LCR13A1_VK_GLv1_06 + LCR13A1_VH_GLv1_05) (Fab, V domains shown)
VH: QVQLVQSGSVLAKPGASVKVSCKASGYTFTNYWTHWVRQAPGQGLEWIGTIYPGNSDTNYNQKFKDRAKLTAVTSTSTVYMELSSLRSEDTALYYCTREDSRSLYYNGWDYFDHWGQGTLVTVSS
VL: DIVMTQSPDSLAVSLGERATISCRASESVDNYGISFLNWYQQKPGQPPKLLIYAASNQGSGVPSRFSGSGSGTDFTLNIHPLEAEDAATYYCQQSKEVPRTFGGGTKVEIK
notes: as for B1
B8: 13A1_CG Fab (LCR13A1_VK_GLv1_07 + LCR13A1_VH_GLv1_05) (Fab, V domains shown)
VH: QVQLVQSGSVLAKPGASVKVSCKASGYTFTNYWTHWVRQAPGQGLEWIGTIYPGNSDTNYNQKFKDRAKLTAVTSTSTVYMELSSLRSEDTALYYCTREDSRSLYYNGWDYFDHWGQGTLVTVSS
VL: DIVMTQSPDSLAVSLGERATISCRASESVDNYGISLLNWFQQKPGQPPKLLIYAASNQGSGVPSRFSGSGSGTDFTLNIHPLEAEDAATYYCQQSKEVPRTFGGGTKVEIK
notes: as for B1
B9: 13A1_AF Fab (LCR13A1_VK_GLv3_02 + LCR13A1_VH_GLv1_04) (Fab, V domains shown)
VH: QVQLVQSGSVLAKPGASVKVSCKASGYTFTNYWMHWVRQAPGQGLEWIGTIYPGNSDTNYNQKFKDRAKLTAVTSTSTVYMELSSLRSEDTAVYYCTREDSRSLNFNGWDYFDYWGQGTLVTVSS
VL: DIVMTQSPDSLAVSLGERATINCKSSESVDNYGISFLNWYQQKPGKAPKLLIYAASNQGSGVPDRFSGSGSGTDFTLTISSLQAEDAAVYFCQQSKEVPRTFGGGTKLEIK
notes: Human stabilized IgG1 Fab: VH-CH1(IgG1)-6xHis and VK-CK, CK/CH1 with the stabilizing mutations of Chen et al 2016
B10: 13A1_AG Fab (LCR13A1_VK_GLv3_02 + LCR13A1_VH_GLv1_05) (Fab, V domains shown)
VH: QVQLVQSGSVLAKPGASVKVSCKASGYTFTNYWTHWVRQAPGQGLEWIGTIYPGNSDTNYNQKFKDRAKLTAVTSTSTVYMELSSLRSEDTALYYCTREDSRSLYYNGWDYFDHWGQGTLVTVSS
VL: DIVMTQSPDSLAVSLGERATINCKSSESVDNYGISFLNWYQQKPGKAPKLLIYAASNQGSGVPDRFSGSGSGTDFTLTISSLQAEDAAVYFCQQSKEVPRTFGGGTKLEIK
notes: as for B1
B11: 13A1_DG Fab (LCR13A1_VK_GLv1_08 + LCR13A1_VH_GLv1_05) (Fab, V domains shown)
VH: QVQLVQSGSVLAKPGASVKVSCKASGYTFTNYWTHWVRQAPGQGLEWIGTIYPGNSDTNYNQKFKDRAKLTAVTSTSTVYMELSSLRSEDTALYYCTREDSRSLYYNGWDYFDHWGQGTLVTVSS
VL: DIVMTQSPDSLAVSLGQRASISCRASESVDNYGISFLNWFQQKPGQPPKLLIYAASNQGSGVPSRFSGSGSGTDFTLNIHPLEAEDAATYYCQQSKEVPRTFGGGTKVEIK
notes: as for B1
B12: 13A1_EH Fab (LCR13A1_VK_GLv1_09 + LCR13A1_VH_GLv1_06) (Fab, V domains shown)
VH: QVQLVQSGSVLAKPGASVKVSCKASGYTFTNYWTHWVRQAPGQGLEWIGTIYPGNSDTNYNQKFKDRAKLTAVTSTSTVYMELSSLRSEDTALYYCTREDSRSLNFNGWDYFDHWGQGTLVTVSS
VL: DIVMTQSPDSLAVSLGQRASISCRASESVDNYGISLLNWYQQKPGQPPKLLIYAASNQGSGVPSRFSGSGSGTDFTLNIHPLEAEDAATYYCQQSKEVPRTFGGGTKVEIK
notes: as for B1
B13: 13A1_DF Fab (LCR13A1_VK_GLv1_08 + LCR13A1_VH_GLv1_04) (Fab, V domains shown)
VH: QVQLVQSGSVLAKPGASVKVSCKASGYTFTNYWMHWVRQAPGQGLEWIGTIYPGNSDTNYNQKFKDRAKLTAVTSTSTVYMELSSLRSEDTAVYYCTREDSRSLNFNGWDYFDYWGQGTLVTVSS
VL: DIVMTQSPDSLAVSLGQRASISCRASESVDNYGISFLNWFQQKPGQPPKLLIYAASNQGSGVPSRFSGSGSGTDFTLNIHPLEAEDAATYYCQQSKEVPRTFGGGTKVEIK
notes: as for B1
B14: 13A1_EF Fab (LCR13A1_VK_GLv1_09 + LCR13A1_VH_GLv1_04) (Fab, V domains shown)
VH: QVQLVQSGSVLAKPGASVKVSCKASGYTFTNYWMHWVRQAPGQGLEWIGTIYPGNSDTNYNQKFKDRAKLTAVTSTSTVYMELSSLRSEDTAVYYCTREDSRSLNFNGWDYFDYWGQGTLVTVSS
VL: DIVMTQSPDSLAVSLGQRASISCRASESVDNYGISLLNWYQQKPGQPPKLLIYAASNQGSGVPSRFSGSGSGTDFTLNIHPLEAEDAATYYCQQSKEVPRTFGGGTKVEIK
notes: as for B1
B15: 13A1_BF Fab (LCR13A1_VK_GLv1_06 + LCR13A1_VH_GLv1_04) (Fab, V domains shown)
VH: QVQLVQSGSVLAKPGASVKVSCKASGYTFTNYWMHWVRQAPGQGLEWIGTIYPGNSDTNYNQKFKDRAKLTAVTSTSTVYMELSSLRSEDTAVYYCTREDSRSLNFNGWDYFDYWGQGTLVTVSS
VL: DIVMTQSPDSLAVSLGERATISCRASESVDNYGISFLNWYQQKPGQPPKLLIYAASNQGSGVPSRFSGSGSGTDFTLNIHPLEAEDAATYYCQQSKEVPRTFGGGTKVEIK
notes: as for B1

The target of this experiment is T1, human recombinant TGF-b1 (human, UniProt P01137 279-390).
T1 construct: also called TGF-β1; hTGF-β1
T1 sequence (P01137 279-390 limits assumed): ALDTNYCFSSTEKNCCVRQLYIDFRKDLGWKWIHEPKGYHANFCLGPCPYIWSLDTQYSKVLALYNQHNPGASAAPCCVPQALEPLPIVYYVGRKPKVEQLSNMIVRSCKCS
Put plainly: SPR (Biacore T200), 10 nM Fab over amine-coupled TGFb1 (492 RUs). As to the method:
FIG. 27 provides Biacore analysis of the new mutant variant antibodies and compares the new mutants versus parent variant 13A1-2F and versus mu13A1. Selected variants have different monovalent (huIgG1 stabilized Fab format). Biacore binding kinetics, range from lower to higher than the parental mouse 13A1 (mu13A1, hybrid with mouse VK/VH and huCK/huCH1). The data presented is ka, kd and apparent KD. TGFb1 (chip): 492 Rus, Fabs: 10 nM, Flow rate: 30 ul/min, Contact time: 510s, Diss. Time: 600s. Quality: Chi(2)<=1% Rmax and U score <=5. Data is presented for mutant variant antibodies 13A1_AF, 13A1_AG, 13A1_AH, 13A1_BF, 13A1_BG, 13A1_BH, 13A1_CF, 13A1_CG, 13A1_CH, 13A1_DF, 13A1_DG, 13A1_DH, 13A1_EF, 13A1_EG and 13A1_EH.
SPR binding analysis of Fabs: Experiments were performed using the Biacore T200 equipped with the Series S sensor chip CMS (GE Healthcare, cat. #BR-1005-30). The instrument temperature was set at 25° C. for all steps in the analysis while the compartment temperature was set at 10° C. All the assays were performed using the running buffer HBS-EP+ 1×. Recombinant TGF-β1 (Biocat, cat. #TG1-H4212-50 ug-AC) was immobilized with the standard amine-coupling chemistry using a solution of the ligand at 1 ug/mL in acetate, pH 4.5. Recombinant TGF-β1 was injected for several minutes to achieve a target density of 492 RUs. For TGF-β1 kinetic analysis Fabs were diluted in running buffer to 10 nM. One buffer blank was always injected before the injection of the antibody sample. The antibodies were then injected for 8.5 minutes (510 s) at 30 uL/min with 600 seconds of dissociation time. Regeneration was performed with 60 seconds of injection at 30 uL/min of 10 mM glycine 1.5. The Biacore binding kinetics range from lower to higher than the parental mouse 13A1 (mu13A1, hybrid with mouse VK/VH and huCK/huCH1.
Background: In SPR one partner is held on a chip, and binding of the other changes the refractive index at the surface.
For B1, the binding result is “binds”.

With B2, the binding result is “binds”.

With B3, the binding result is “binds”.

Turning to B4, the binding result is “binds”.

With B5, the binding result is “binds”.

Turning to B6, the binding result is “binds”.

Turning to B7, the binding result is given as “binds”.

Regarding B8, the binding result is on record as “binds”.

As for B9, the binding result is “binds”.

B10: the binding result is given as “binds”.

As for B11, the binding result is “binds”.

With B12, the binding result is listed as “binds”.

Turning to B13, the binding result is “binds”.

In the case of B14, the binding result is recorded as “binds”.

On to B15, for which the binding result is “binds”.

Source of the values: US20210403546A1 (LUDWIG INSTITUTE FOR CANCER RESEARCH, published 2021).
